Measurements taken from patent US8951752B2, “N-demethyase genes and uses thereof” (priority 2011, dated 2015).

Assays:
Format in all cases: biochemical, Pseudomonas putida CBB5
[1] = biological target: T1, cytochrome c reductase (Ccr) (Pseudomonas putida, UniProt H9N291); test: NAD(P)H:cytochrome c oxidoreductase activity
T1 construct: 87 μM bovine cytochrome c (type Ill; Sigma), and 1-20 μg CBB5 protein (depending on purity); made in house; host or cells: column fractions of the natural strain Pseudomonas putida CBB5; not recombinant
T1 sequence (H9N291 whole entry): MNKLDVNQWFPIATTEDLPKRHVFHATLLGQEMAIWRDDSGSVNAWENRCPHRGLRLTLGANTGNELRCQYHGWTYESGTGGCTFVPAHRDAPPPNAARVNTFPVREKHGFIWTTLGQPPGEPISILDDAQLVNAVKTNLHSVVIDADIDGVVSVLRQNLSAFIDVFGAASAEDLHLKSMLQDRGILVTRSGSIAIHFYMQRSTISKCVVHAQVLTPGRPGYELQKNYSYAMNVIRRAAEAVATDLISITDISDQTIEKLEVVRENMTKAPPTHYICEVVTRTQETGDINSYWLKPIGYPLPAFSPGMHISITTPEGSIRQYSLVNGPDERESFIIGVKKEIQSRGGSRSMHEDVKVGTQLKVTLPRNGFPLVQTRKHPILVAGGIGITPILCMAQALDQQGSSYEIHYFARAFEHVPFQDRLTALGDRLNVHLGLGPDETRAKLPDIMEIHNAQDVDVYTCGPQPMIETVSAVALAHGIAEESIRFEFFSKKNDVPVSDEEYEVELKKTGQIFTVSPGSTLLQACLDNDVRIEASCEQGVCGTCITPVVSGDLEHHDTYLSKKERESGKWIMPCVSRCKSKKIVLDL
Procedure: Enzyme Activity Assays. NADH:cytochrome c oxidoreductase (cytochrome c reductase, Ccr) activity was determined as described by Ueda et al. (1972). A typical 1-mL reaction contained 300 μM NADH, 87 μM bovine cytochrome c (type Ill; Sigma), and 1-20 μg CBB5 protein (depending on purity) in 50 mM KPi buffer. The activity was determined by monitoring the increase in absorbance at 550 nm due to reduction of […] cytochrome c at 30° C. An extinction coefficient of 21,000 M^−1 cm^−1 for reduced minus oxidized cytochrome c was used for quantitating the activity. One unit of activity was defined as one μmol of cytochrome c reduced per minute.

[2] = substrate: Cn1c(=O)[nH]c2ncn(C)c2c1=O; test: Methylxanthine N-demethylase activity assay with purified Ndm plus partially purified Ccr; details: other: saturating Ccr, 50 μM Fe2+, 30° C., 50 mM KPi pH 7.5
Procedure: (§1) Methylxanthine N-demethylase activity assay contained, in 1-mL total volume, 0.5 mM methylxanthine, 1 mM NADH, 50 μM Fe(NH4)2(SO4)2, and an appropriate amount of Ndm (0.08-7.5 mg protein, depending on purity of the protein) in 50 mM KPi buffer. Approximately 4 U of partially purified Ccr was added to reaction mixture when assaying Ndm in Phenyl Sepharose and Q Sepharose eluant-fractions (Ccr was not added to the enzyme reaction mixture when assaying Ndm activity in DEAE Sepharose eluant-fractions because Ccr co-eluted with Ndm). The reaction mixture was incubated at 30° C. with 300 rpm shaking on an incubating microplate shaker (VWR). Periodically, a small aliquot was sampled from the reaction mixture and mixed with equal volume of acetonitrile for quantifying concentrations of methylxanthines and N-demethylated products by HPLC. One unit of N-demethylase activity was defined as the consumption of one μmole methylxanthine per minute. When Ndm was coupled with the reductase and ferredoxin components of naphthalene dioxygenase of Pseudomonas sp. strain 9816 (Haigler & Gibson, 1990a; Haigler & Gibson, 1990b), 30 and 100 μg of the respective proteins were used. Spinach ferredoxin reductase and ferredoxin were also substituted for Ccr as described by Subramanian et al. (1979).
(§2) Determination of Kinetic Parameters. Apparent kinetic parameters of Ndm were determined by measuring the initial rate of disappearance (vo) of paraxanthine or 7-methylxanthine in 50 mM KPi buffer (pH 7.5) at 30° C. The paraxanthine and 7-methylxanthine concentrations ([S]) used in these experiments were from 20 to 500 μM. Substrates were incubated with Ndm and Ccr under standard conditions for 15 minutes. At 1, 5, 10, and 15 minutes, samples were removed from the reaction mixtures to quantitate substrate concentrations by HPLC. Plots of substrate concentrations against time were used to determine the initial rates of disappearance of substrates which were linear over 15 minutes. The apparent kinetic parameters were determined from Michaelis-Menten plots of Vo against [S] fitted with the equation
(§3) Determination of Oxygen Requirement. Oxygen consumption by Ndm during N-demethylation of paraxanthine was determined in a closed reaction vessel equipped with a Clarke-type oxygen electrode (Digitial Modell 0, Rank Brothers Ltd., Cambridge, England). […] After 13 minutes, a 100-μL aliquot was withdrawn from the reaction, immediately mixed with equal volume of acetonitrile to stop the enzyme reaction, and analyzed for N-demethylation product by HPLC. Background oxygen consumption, possibly due to NADH oxidase enzyme activity in the partially purified Ccr, was quantitated in control reactions containing all reaction components except paraxanthine. […]

[3] = substrate: Cn1cnc2[nH]c(=O)[nH]c(=O)c21; test: as above; details: other: saturating Ccr, 50 μM Fe2+, 30° C., 50 mM KPi pH 7.5
Procedure: as §1, §2, §3

[4] = substrate: Cn1c(=O)[nH]c2nc[nH]c2c1=O; test: Methylxanthine N-demethylase assay and kinetics, NdmA-His6 with His6-NdmD; details: other: NdmA-His6, 30° C., pH 7.5, ∞ where no activity
Procedure: (§4) Methylxanthine N-demethylase activity assay contained, in 1-ml total volume, 0.5 mM methylxanthine, 1 mM NADH, 50 μM Fe(NH4)2(SO4)2, and an appropriate amount of NdmA-His6 or NdmB-His6 (7.4 μg-2.5 mg protein depending on substrate specificity) in 50 mM KPi buffer (pH 7.5). Approximately 4 U of partially purified reductase, prepared as described previously (Summers et al., 2011) or 59 U of purified His6-NdmD was added to reaction mixture. Catalase from bovine liver (4,000 U) was also added to reactions containing His6-NdmD. The reaction mixture was incubated at 30° C. with 300 rpm shaking on an incubating microplate shaker (VWR, Radnor, Pa.). Periodically, a small aliquot was sampled from the reaction mixture and mixed with equal volume of acetonitrile for quantifying concentrations of methylxanthines and N-demethylated products by HPLC. One unit of N-demethylase activity was defined as the consumption of one […] methylxanthine per minute.
(§5) Apparent kinetic parameters of NdmA-His6 and NdmB-His6 were determined by measuring the initial rate of disappearance (vo) of methylxanthines in 50 mM KPi buffer (pH 7.5) at 30° C. The initial substrate concentrations (ESI) used in these experiments were from 25 to 500 μM. Substrates were incubated with His6-NdmD plus either NdmA-His6 or NdmB-His6 under standard conditions for 15 minutes. At 1, 5, 10, and 15 minutes, samples were removed from the reaction mixtures to quantitate substrate concentrations by HPLC. Plots of substrate concentrations against time were used to determine the initial rates of disappearance of substrates which were linear over 15 minutes. The apparent kinetic parameters were determined from Michaelis-Menten plots of vo against [S] fitted with the equation

[5] = substrate: Cn1c(=O)c2[nH]cnc2n(C)c1=O; test: as above; details: other: NdmA-His6, 30° C., pH 7.5, ∞ where no activity
Procedure: as §4, §5

[6] = substrate: Cn1c(=O)[nH]c2ncn(C)c2c1=O; test: as above; details: other: NdmA-His6, 30° C., pH 7.5, ∞ where no activity
Procedure: as §4, §5

[7] = substrate: Cn1c(=O)c2c(ncn2C)n(C)c1=O; test: as above; details: other: NdmA-His6, 30° C., pH 7.5, ∞ where no activity
Procedure: as §4, §5

[8] = substrate: Cn1c(=O)[nH]c(=O)c2[nH]cnc21; test: Methylxanthine N-demethylase assay and kinetics, NdmB-His6 with His6-NdmD; details: other: NdmB-His6, 30° C., pH 7.5, ∞ where no activity
Procedure: as §4, §5

[9] = substrate: Cn1c(=O)c2[nH]cnc2n(C)c1=O; test: as above; details: other: NdmB-His6, 30° C., pH 7.5, ∞ where no activity
Procedure: as §4, §5

[10] = substrate: Cn1cnc2c1c(=O)[nH]c(=O)n2C; test: as above; details: other: NdmB-His6, 30° C., pH 7.5, ∞ where no activity
Procedure: as §4, §5

[11] = substrate: Cn1c(=O)c2c(ncn2C)n(C)c1=O; test: as above; details: other: NdmB-His6, 30° C., pH 7.5, ∞ where no activity
Procedure: as §4, §5

`NC(=O)C1=CN([C@@H]2O[C@H](COP(=O)(O)OP(=O)(O)OC[C@H]3O[C@@H](n4cnc5c(N)ncnc54)[C@H](OP(=O)(O)O)[C@@H]3O)[C@@H](O)[C@H]2O)C=CC1` [NADPH] was tested, and the “Ccr activity relative to that with NADH” value [1] was 22%.

B1: N-demethylase (Ndm: NdmA and NdmB subunits) (Pseudomonas putida) (protein)
chain 1: MEQAIINDEREYLRHFWHPVCTVTELEKAHPSSLGPLAVKLLNEQLVVAKLGDEYVAMRDRCAHRSAKLSLGTVSGNRLQCPYHGWQYDTHGACQLVPACPNSPIPNKAKVDRFDCEERYGLIWIRLDSSFDCTEIPYFSAANDPRLRIVIQEPYWWDATAERRWENFTDFSHFAFIHPGTLFDPNNAEPPIVPMDRFNGQFRFVYDTPEDMAVPNQAPIGSFSYTCSMPFAINLEVSKYSSSSLHVLFNVSCPVDSHTTKNFLIFAREQSDDSDYLHIAFNDLVFAEDKPVIESQWPKDAPADEVSVVADKVSIQYRKWLRELKEAHKEGSQAFRSALLDPVIESDRSYI
chain 2: MKEQLKPLLEDKTYLRHFWHPVCTLNEFERANASGHGPMGVTLLGEKLVLARLNSKIIAAADRCAHRSAQLSIGRVCSNAGKDYLECPYHGWRYDEAGACQLIPACPDKSISPRAKISSFDCEVKYDIVWVRLDNSFDCTQIPYLSDFDNPDMQVIVADSYIWETVAERRWENFTDFSHFAFVHPGTLYDPFFASHPTVYVNRVDGELQFKLAPPREMKGIPPEAPMGDFTYRCTMPYSVNLEIKLWKDDSRFVLWTTASPVDNKSCRNFMIIVREKDNQPDHMHLAFQKRVLDEDQPVIESQWPLEIQTSEVSVATDKISVQFRKWHKELSLSAVEGREAFRDSVLTNVIEEEQ
notes: lane 3, natural Ndm purified from P. putida CBB5; made in house; host or cells: purified from the natural strain Pseudomonas putida CBB5 (DEAE, Phenyl and Q Sepharose); not recombinant
With B1 the Km [2] was 50.4 ± 6.8 µM, the kcat [2] was 0.27 ± 0.01 s⁻¹ and the Km [3] was 63.8 ± 7.5 µM. For the same molecule, the kcat [3] was 1.58 ± 0.05 s⁻¹.

B2: NdmA-His6 (Pseudomonas putida) (protein)
chain: MEQAIINDEREYLRHFWHPVCTVTELEKAHPSSLGPLAVKLLNEQLVVAKLGDEYVAMRDRCAHRSAKLSLGTVSGNRLQCPYHGWQYDTHGACQLVPACPNSPIPNKAKVDRFDCEERYGLIWIRLDSSFDCTEIPYFSAANDPRLRIVIQEPYWWDATAERRWENFTDFSHFAFIHPGTLFDPNNAEPPIVPMDRFNGQFRFVYDTPEDMAVPNQAPIGSFSYTCSMPFAINLEVSKYSSSSLHVLFNVSCPVDSHTTKNFLIFAREQSDDSDYLHIAFNDLVFAEDKPVIESQWPKDAPADEVSVVADKVSIQYRKWLRELKEAHKEGSQAFRSALLDPVIESDRSYI
notes: made in house; host or cells: E. coli BL21(DE3)
With B2 the Km [4] was 266.6 µM, the kcat [4] was 0.26 s⁻¹ and the kcat/Km [4] was 1000 M⁻¹ s⁻¹. For the same molecule, the Km [5] was 9.1 µM, the kcat [5] was 1.38 s⁻¹ and the kcat/Km [5] was 152000 M⁻¹ s⁻¹. The Km [6] was 52.9 µM, the kcat [6] was 2.21 s⁻¹ and the kcat/Km [6] was 41700 M⁻¹ s⁻¹. The Km [7] was 37.6 µM, the kcat [7] was 3.21 s⁻¹ and the kcat/Km [7] was 85000 M⁻¹ s⁻¹.

B3: NdmB-His6 (Pseudomonas putida) (protein)
chain: MKEQLKPLLEDKTYLRHFWHPVCTLNEFERANASGHGPMGVTLLGEKLVLARLNSKIIAAADRCAHRSAQLSIGRVCSNAGKDYLECPYHGWRYDEAGACQLIPACPDKSISPRAKISSFDCEVKYDIVWVRLDNSFDCTQIPYLSDFDNPDMQVIVADSYIWETVAERRWENFTDFSHFAFVHPGTLYDPFFASHPTVYVNRVDGELQFKLAPPREMKGIPPEAPMGDFTYRCTMPYSVNLEIKLWKDDSRFVLWTTASPVDNKSCRNFMIIVREKDNQPDHMHLAFQKRVLDEDQPVIESQWPLEIQTSEVSVATDKISVQFRKWHKELSLSAVEGREAFRDSVLTNVIEEEQ
notes: as for B2
Molecule B3 has a Km [8] of 22.4 ± 5.2 µM, a kcat [8] of 0.528 ± 0.025 s⁻¹ and a kcat/Km [8] of 23300 M⁻¹ s⁻¹. For the same molecule, the Km [9] was 169.0 µM, the Km [10] was 25.3 ± 5.1 µM and the kcat [10] was 0.772 ± 0.0317 s⁻¹. It also gave a kcat/Km [10] of 30000 M⁻¹ s⁻¹, a Km [11] of 41.7 µM and a kcat [11] of 0.00383 s⁻¹. The kcat/Km [11] was 100 M⁻¹ s⁻¹.
